From patent US20020147326A1 (GlaxoSmithKline, published 2002)

Tests used:
CTLA4-Ig [1] = molecular target: T1, CTLA4-Ig (human, UniProt P16410 36-161); assay: isothermal titration calorimetry, in solution, 37° C.
T1 construct: also called CTLA4-Fc; not shown: human IgG1 heavy chain Fc region (hinge, CH2, CH3) of vector COSFcLink

[2] = molecular target: T2, human CD28 expressed on the cell surface (human, UniProt P10747 19-220); assay: flow cytometry on PCD28.1.s2.1 cells expressing human CD28
T2 construct: whole, on cells; also called CD28 positive cells; PCD28.1.s2.1 cells
Method: Non-adherent CD28 expressing cells (PCD28.1.s2.1) were used for this assay format. […] All incubations were carried out on ice. […] After washing twice in binding buffer, bound fusion proteins were detected with a 1:2000 dilution of a goat anti-human polyclonal antibody labeled with FITC (Flourescein isothiocyanate, Southern Biotech).

CTLA4-Ig [3] = molecular target: T1, CTLA4-Ig; assay: isothermal titration calorimetry at 44° C., Kd corrected to 37° C. by the van't Hoff equation
CTLA4-Ig [4] = molecular target: T1, CTLA4-Ig; assay: isothermal titration calorimetry, in solution, 44° C.
CTLA4-Ig [5] = molecular target: T1, CTLA4-Ig; assay: isothermal titration calorimetry, Kd at 37° C., measured at 37° C.

T1 sequence (P16410 other isoform, or with tags, fused parts or gaps): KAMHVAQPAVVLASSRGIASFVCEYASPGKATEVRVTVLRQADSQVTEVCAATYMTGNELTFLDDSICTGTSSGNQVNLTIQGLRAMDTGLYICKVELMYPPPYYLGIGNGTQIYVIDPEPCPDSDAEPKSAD

Kd (CTLA4-Ig [1]): 38 nM | Molar Ratio (CTLA4-Ig per construct) (CTLA4-Ig [1]): 0.8 | ΔH (CTLA4-Ig [1]): -33 kcal/mol | binding result [2]: no binding | Kd (CTLA4-Ig [3]): 22 nM | Kd (CTLA4-Ig [4]): 71 nM | Molar Ratio (CTLA4-Ig per construct) (CTLA4-Ig [4]): 0.79 | ΔH (CTLA4-Ig [4]): -34 kcal/mol | Kd (CTLA4-Ig [5]): 40 nM
B1: CD86-Ig (Fc fusion)
chain: APLKIQAYFNETADLPCQFANSQNQSLSELVVFWQDQENLVLNEVYLGKEKFDSVHSKYMGRTSFDSDSWTLRLHNLQIKDKGLYQCIIHHKKPTGMIRIHQMNSELSVLANFSQPEIVPISNITENVYINLTCSSIHGYPEPKKMSVLLRTKNSTIEYDGIMQKSQDNVTELYDVSISLSVSFPDVTSNMTIFCILETDKTRLLSSPFSIELEDPQPPPDHEPKSADKTHTCPPCP
notes: Mature N-terminus LKIQ-, junction PPPDHepksa; also called B7.2-Ig; monomeric CD86-Ig; not shown: human IgG1 heavy chain Fc region (hinge, CH2, CH3) of vector COSFcLink
